Experimental data: article PMC12416549 (2024)

Target: T1, TNFR1 (Homo sapiens, UniProt P19438)
T1 chain: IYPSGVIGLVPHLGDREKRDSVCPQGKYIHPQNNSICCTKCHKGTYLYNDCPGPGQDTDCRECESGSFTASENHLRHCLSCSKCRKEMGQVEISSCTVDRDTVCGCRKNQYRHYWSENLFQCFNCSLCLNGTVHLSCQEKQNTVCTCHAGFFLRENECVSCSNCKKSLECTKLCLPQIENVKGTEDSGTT
Assay: yeast display SC50

Binder | apparent Kd (screen)
E82N (designed binder) SMEEEVEKAAKEYEKKKKEAIEKHLEKLKAKDKEAAERFLKELEEAAKEYAKDEAKTMSEEEAKRRAKKYKEKVLLSELSENEQKEIKEAEEKLVRTILKYVEEAAK | 1.86 nM
E45G (designed binder) SMEEEVEKAAKEYEKKKKEAIEKHLEKLKAKDKEAAERFLKELEGAAKEYAKDEAKTMSEEEAKRRAKKYKEKVLLSELSEEEQKEIKEAEEKLVRTILKYVEEAAK | 2.05 nM
K71F (designed binder) SMEEEVEKAAKEYEKKKKEAIEKHLEKLKAKDKEAAERFLKELEEAAKEYAKDEAKTMSEEEAKRRAKKYFEKVLLSELSEEEQKEIKEAEEKLVRTILKYVEEAAK | 2.48 nM
E54N (designed binder) SMEEEVEKAAKEYEKKKKEAIEKHLEKLKAKDKEAAERFLKELEEAAKEYAKDNAKTMSEEEAKRRAKKYKEKVLLSELSEEEQKEIKEAEEKLVRTILKYVEEAAK | 12.5 nM
T97G (designed binder) SMEEEVEKAAKEYEKKKKEAIEKHLEKLKAKDKEAAERFLKELEEAAKEYAKDEAKTMSEEEAKRRAKKYKEKVLLSELSEEEQKEIKEAEEKLVRGILKYVEEAAK | 1.86 nM
K16R (designed binder) SMEEEVEKAAKEYEKRKKEAIEKHLEKLKAKDKEAAERFLKELEEAAKEYAKDEAKTMSEEEAKRRAKKYKEKVLLSELSEEEQKEIKEAEEKLVRTILKYVEEAAK | 1.4 nM
D32V (designed binder) SMEEEVEKAAKEYEKKKKEAIEKHLEKLKAKVKEAAERFLKELEEAAKEYAKDEAKTMSEEEAKRRAKKYKEKVLLSELSEEEQKEIKEAEEKLVRTILKYVEEAAK | 7.07 nM
E4S (designed binder) SMESEVEKAAKEYEKKKKEAIEKHLEKLKAKDKEAAERFLKELEEAAKEYAKDEAKTMSEEEAKRRAKKYKEKVLLSELSEEEQKEIKEAEEKLVRTILKYVEEAAK | 0.539 nM
K52P (designed binder) SMEEEVEKAAKEYEKKKKEAIEKHLEKLKAKDKEAAERFLKELEEAAKEYAPDEAKTMSEEEAKRRAKKYKEKVLLSELSEEEQKEIKEAEEKLVRTILKYVEEAAK | 4.39 nM
K11H (designed binder) SMEEEVEKAAHEYEKKKKEAIEKHLEKLKAKDKEAAERFLKELEEAAKEYAKDEAKTMSEEEAKRRAKKYKEKVLLSELSEEEQKEIKEAEEKLVRTILKYVEEAAK | 0.956 nM
E14K (designed binder) SMEEEVEKAAKEYKKKKKEAIEKHLEKLKAKDKEAAERFLKELEEAAKEYAKDEAKTMSEEEAKRRAKKYKEKVLLSELSEEEQKEIKEAEEKLVRTILKYVEEAAK | 3 nM
E14P (designed binder) SMEEEVEKAAKEYPKKKKEAIEKHLEKLKAKDKEAAERFLKELEEAAKEYAKDEAKTMSEEEAKRRAKKYKEKVLLSELSEEEQKEIKEAEEKLVRTILKYVEEAAK | 11.4 nM
K16T (designed binder) SMEEEVEKAAKEYEKTKKEAIEKHLEKLKAKDKEAAERFLKELEEAAKEYAKDEAKTMSEEEAKRRAKKYKEKVLLSELSEEEQKEIKEAEEKLVRTILKYVEEAAK | 1.05 nM
L75N (designed binder) SMEEEVEKAAKEYEKKKKEAIEKHLEKLKAKDKEAAERFLKELEEAAKEYAKDEAKTMSEEEAKRRAKKYKEKVNLSELSEEEQKEIKEAEEKLVRTILKYVEEAAK | 0.869 nM
K23I (designed binder) SMEEEVEKAAKEYEKKKKEAIEIHLEKLKAKDKEAAERFLKELEEAAKEYAKDEAKTMSEEEAKRRAKKYKEKVLLSELSEEEQKEIKEAEEKLVRTILKYVEEAAK | 0.539 nM
R66S (designed binder) SMEEEVEKAAKEYEKKKKEAIEKHLEKLKAKDKEAAERFLKELEEAAKEYAKDEAKTMSEEEAKRSAKKYKEKVLLSELSEEEQKEIKEAEEKLVRTILKYVEEAAK | 7.07 nM
E19F (designed binder) SMEEEVEKAAKEYEKKKKFAIEKHLEKLKAKDKEAAERFLKELEEAAKEYAKDEAKTMSEEEAKRRAKKYKEKVLLSELSEEEQKEIKEAEEKLVRTILKYVEEAAK | 0.446 nM
L28R (designed binder) SMEEEVEKAAKEYEKKKKEAIEKHLEKRKAKDKEAAERFLKELEEAAKEYAKDEAKTMSEEEAKRRAKKYKEKVLLSELSEEEQKEIKEAEEKLVRTILKYVEEAAK | 1.86 nM

Binder | apparent Kd (screen)
E78F (designed binder) SMEEEVEKAAKEYEKKKKEAIEKHLEKLKAKDKEAAERFLKELEEAAKEYAKDEAKTMSEEEAKRRAKKYKEKVLLSFLSEEEQKEIKEAEEKLVRTILKYVEEAAK | 0.49 nM
K100Q (designed binder) SMEEEVEKAAKEYEKKKKEAIEKHLEKLKAKDKEAAERFLKELEEAAKEYAKDEAKTMSEEEAKRRAKKYKEKVLLSELSEEEQKEIKEAEEKLVRTILQYVEEAAK | 0.539 nM
I98K (designed binder) SMEEEVEKAAKEYEKKKKEAIEKHLEKLKAKDKEAAERFLKELEEAAKEYAKDEAKTMSEEEAKRRAKKYKEKVLLSELSEEEQKEIKEAEEKLVRTKLKYVEEAAK | 4.83 nM
E22D (designed binder) SMEEEVEKAAKEYEKKKKEAIDKHLEKLKAKDKEAAERFLKELEEAAKEYAKDEAKTMSEEEAKRRAKKYKEKVLLSELSEEEQKEIKEAEEKLVRTILKYVEEAAK | 0.49 nM
E86I (designed binder) SMEEEVEKAAKEYEKKKKEAIEKHLEKLKAKDKEAAERFLKELEEAAKEYAKDEAKTMSEEEAKRRAKKYKEKVLLSELSEEEQKIIKEAEEKLVRTILKYVEEAAK | 1.69 nM
I87A (designed binder) SMEEEVEKAAKEYEKKKKEAIEKHLEKLKAKDKEAAERFLKELEEAAKEYAKDEAKTMSEEEAKRRAKKYKEKVLLSELSEEEQKEAKEAEEKLVRTILKYVEEAAK | 13.8 nM
A63S (designed binder) SMEEEVEKAAKEYEKKKKEAIEKHLEKLKAKDKEAAERFLKELEEAAKEYAKDEAKTMSEEESKRRAKKYKEKVLLSELSEEEQKEIKEAEEKLVRTILKYVEEAAK | 3.99 nM
K41Q (designed binder) SMEEEVEKAAKEYEKKKKEAIEKHLEKLKAKDKEAAERFLQELEEAAKEYAKDEAKTMSEEEAKRRAKKYKEKVLLSELSEEEQKEIKEAEEKLVRTILKYVEEAAK | 0.718 nM
K100P (designed binder) SMEEEVEKAAKEYEKKKKEAIEKHLEKLKAKDKEAAERFLKELEEAAKEYAKDEAKTMSEEEAKRRAKKYKEKVLLSELSEEEQKEIKEAEEKLVRTILPYVEEAAK | 3 nM
A20E (designed binder) SMEEEVEKAAKEYEKKKKEEIEKHLEKLKAKDKEAAERFLKELEEAAKEYAKDEAKTMSEEEAKRRAKKYKEKVLLSELSEEEQKEIKEAEEKLVRTILKYVEEAAK | 1.16 nM
L75A (designed binder) SMEEEVEKAAKEYEKKKKEAIEKHLEKLKAKDKEAAERFLKELEEAAKEYAKDEAKTMSEEEAKRRAKKYKEKVALSELSEEEQKEIKEAEEKLVRTILKYVEEAAK | 0.405 nM
L25C (designed binder) SMEEEVEKAAKEYEKKKKEAIEKHCEKLKAKDKEAAERFLKELEEAAKEYAKDEAKTMSEEEAKRRAKKYKEKVLLSELSEEEQKEIKEAEEKLVRTILKYVEEAAK | 1.4 nM
K107T (designed binder) SMEEEVEKAAKEYEKKKKEAIEKHLEKLKAKDKEAAERFLKELEEAAKEYAKDEAKTMSEEEAKRRAKKYKEKVLLSELSEEEQKEIKEAEEKLVRTILKYVEEAAT | 0.869 nM
E103G (designed binder) SMEEEVEKAAKEYEKKKKEAIEKHLEKLKAKDKEAAERFLKELEEAAKEYAKDEAKTMSEEEAKRRAKKYKEKVLLSELSEEEQKEIKEAEEKLVRTILKYVGEAAK | 0.539 nM
E60C (designed binder) SMEEEVEKAAKEYEKKKKEAIEKHLEKLKAKDKEAAERFLKELEEAAKEYAKDEAKTMSCEEAKRRAKKYKEKVLLSELSEEEQKEIKEAEEKLVRTILKYVEEAAK | 1.05 nM
E7N (designed binder) SMEEEVNKAAKEYEKKKKEAIEKHLEKLKAKDKEAAERFLKELEEAAKEYAKDEAKTMSEEEAKRRAKKYKEKVLLSELSEEEQKEIKEAEEKLVRTILKYVEEAAK | 1.27 nM
E72C (designed binder) SMEEEVEKAAKEYEKKKKEAIEKHLEKLKAKDKEAAERFLKELEEAAKEYAKDEAKTMSEEEAKRRAKKYKCKVLLSELSEEEQKEIKEAEEKLVRTILKYVEEAAK | 1.05 nM
